Results reported in the nanobody polyreactivity screen of Harvey et al. (2022).

Assay: yeast display, Sf9 membrane polyspecificity reagent, FACS + sequencing; frameworks hold sequencing errors
Method in brief: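 Nanobodies from a synthetic yeast display library (Saccharomyces cerevisiae BJ5465), induced 36–48 hours with galactose, were stained 1 hour at 4 °C with 10% biotinylated, detergent-solubilized Sf9 membrane reagent, enriched on streptavidin microbeads, then FACS-sorted. Anti-HA (expression) and streptavidin (reagent binding) fluorescence set low and high (top ~1%) gates. Polyreactivity labels come from the gate of origin. Genes were colony-PCR amplified, MiSeq 2 × 250 sequenced and filtered by CDR length.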

Sequence | polyreactivity (PSR sort gate)
QVQLVESGGGLVQAGGSLRLSCAASGRTSRSYAMGWYRQAPGKERELVAAISWSGGSTYYADSVKGRFTMSRDNAKNTVYLQMNSLKPEDTAGYYCNALTLAGYDYWGQGTQVTVSS | high polyreactivity
QDQLVESGGGLVQAGGSLRLSCAASGSIFQYYAMGWYRQAPGKERELVAAISYSGDGTFYADSVKGRFTISRDNAKNSVYLQMNSLKPVDTAVYYCAASSTGYGGSTYYYWGQGTQVTVSS | low polyreactivity
QVQLVESGGGLVQAGGSLRLSFAASGSTFPKYAMRGYRPAPGKQRELVASISVTTGSTNYADSEKGRFTISRDNAKNTVYLQMNSLKPEDTAVYYCAADTVYRTHHYAQHYYYWGQGTLVTVSS | high polyreactivity
QFQLVESGGGLVQAGRSLRLSCAASGSIFWSNAMGWYRQAPGKERELVAAITTSDGSKYYADSVKGRFRISRDNANNTVYLQMNILKPEDTAVYYCAADTYFVCYGYYYWGQGTQVTVSS | low polyreactivity
QVQLVESGGGLVQAGGSLRLSCAASGSTFGYYAMGWYRQEPGKERELVAAISRGSSTYYADSVKGRFTISRDNAKNTVYLQMNSLKPEDTAVYYCAAKRYAYGSLDYWGQGTQVTVSS | high polyreactivity
QVQLVESGGGLVQAGGSLRLSCAASGSTLNRNVMGWSRQAPGKERQMVAVITYGVGSTYYADSVKGRFTISRDNAKNTHYIQMNSLKPEDTAVYYCNKDPLVFDYWGQGTQVTVSS | low polyreactivity
QVHLVESGGGLVQAGGSLRLTCAASGITLDGNAMGWYRQAPGKERELVAAITSGGGTNYADSVKGRFTISRDNAKNTVYLQMNSLKPVDTAVYYCCADKPNDGVGRLYDYWGQGTQVTVSS | low polyreactivity
QVQLVESGGGLVQAGGSLRLSCAASGRTFSVYTMGWYRQAPGKERELVASINWSGGRTYYADSVKGRFTISRDNAKYSVYFQMISLKPEDTAVYYCAATGWRTLFDYWGQGTQVTVSS | high polyreactivity
KVQLVESGGGLVQARGSLRLSCAASGRIIRYYVMGWYRQAPGKERELVASISWRGTSTYYADSVKGRFTISRDNAKNTVYLQMNSLKPEDTAVYYCNAARPGKNYDSWGQGTQVTVSS | high polyreactivity
QVQLVESGGGLVQAGGSLRLSCPASGFTFVSYAMGWYRQAPGKERELVAAISRSGGTTYYADSVKGRFTISRDNAKNTVYLQMNSLKPEDTAVYYCAADFYVFYTRYYYWGQGTQVTVSS | low polyreactivity
QVQLVESGGGLVQAGGSLRLSCAASGSIFYVYAMGRYRQAPGKERELVASINKSGGSTYYADSVKGRFTISRDNAKNTVYLQMNSLKPEDTAVYYCAARTGWPRVGFQYPAHVGFDYWGQGTQVTVSS | low polyreactivity
QVQLVESGGGLVQAGGSLRLSCAASGIIFYDYAMGWYRQAPGKERELVAAISTDAGSTYYADSVKGRFTISRDNAKNTVYLQMNCLKPEDTAVYYCNADELSYYVSWDYEYDYWGQGTQVTVSS | high polyreactivity
QVQLVESGGGLVQAGGSLRVSCAASGFTFRGYAMGWYRQAPGKERELVAAIRRGVITNYADSVKGRFTISRDNAKNTVYLQMHSLKPEDTAVYYCAAGNITPYRYYHGYYQSIYDYWGQGTQVTVSS | low polyreactivity
QVQLVESGGGLVQAGGSLRLSCAASASTFGAYAMGWYRQAPGKERELVAAITESGDNTYYADSVKGRFTISRDNAKNTVYLQMNSLKPEDTAVFYCAADDGYSTYEYWGQGTQVTVSS | low polyreactivity
QVQLVESGGGLVQAGGSLRLSCAASGSTFWYYTMGWYRPAPGKERELVAGITSGGSTYYADSVKGRFTISRDYANNTVYLQMNSLKPEDTAVYYCTFYWYNYWGQGTQVTVSS | high polyreactivity
QVQLVESGGGLVQAGGSLRLSCAASGSIFYLYAMGWYRQAPGKERELVAAINFRGGSTYADSVKGRFTISRDNAKNTVYLQMNSLKPEDTAVYYCAAKADYRMNYWGQGTQVTVSS | high polyreactivity
QVQLVESGGGLVQAGGSLRLSCAASGRILSYYAMGWYRQAPGKETELVATISASGGSTYYADSVKGRFTISRDNAKNTVYLQMNSLKPEDTAVYYCAAARVPAYYLRYLYRTTYDYWGQGTQVTVSS | high polyreactivity
QVQLVESGGGLVQAGGSLRLSCAASGIIFRRYAMGWYRQAPGKERELVAAISWSGGSTYYADSVKGRFTISRDNAKNTVYLQMNSLKPEDTAVYYCAAAAYTRDEYDYWGQGTQVTVSS | high polyreactivity
QVQLVESGGGLVQAGGSLRLSCAASGLIFYAYAMGWYRQAPGKEREFVAAINNSGGRTYYADSVKGRFTISRDNAKNTVYLQMYSLKPEDTAVYYCAVYSYYRRTYRREMDYWGQGTQVTVSS | high polyreactivity
QVQLVESGGGLVQAGGSLRLSCAASGRIFVYNAMGWYRQAPGKERELVAAITYSVDSTYYADSVKGRFTISRDNAKNTVYLQMNSLKPEDTAVYYCAADDFHYVIHAYYSSGVDYWGQGTQVTVSS | low polyreactivity
QVQLVESGGGLVQAGGSLRLSCAASGSIFLHNAMGWYRQAPGKERELVAVITSRGGSTYYADSVKGRLTISRDNAKNTVYLQMKSLKPEDTAVYYCAAPAYHKRTSRGDYWGQGTQVTVSS | low polyreactivity
QVQLVESGGGLVQAGGSLRLSCAASGRIFLRNAMGWYRQEPGKERELVASIDRSGGSTYYADSVKGRFTISRDNAKNTVFLQMNSLKPEDTAVYYCAAAYWYLYYYWGQGTQVTVSS | low polyreactivity

Sequence | polyreactivity (PSR sort gate)
QVQLVESGGGLVQAGGSLRLSCAASGRIFRYYAMGWYRQAPGKERELVAAINTSTGSTYYADSVKGRFTISRDNAKNTVYLQMNSLKPEDTAVYYCATGWHYYRSLRGGLAWPGGYWGQGTQVTVSS | high polyreactivity
QLQHVESGGGLVQAGGRLRLSCAASGFTFYYYAMGWYRPEPGKERELVAAISSTGGSTYYADSVKGRFTISRDNAKNTVYLQMNSMKPEDTAVYYCNAACYRYPGDYDYWGQGTQVTVSS | high polyreactivity
QVKLVESGGCLVQAGGSLRLSCAASGRTIGYYGMGWYRQAPGKARELVAAITGSGGSTYYADSVKGRFTISRDNSKNTVYLQMNILIPEDTAVYYCAATYLSRWTLYDYWGQGTQVTVSS | high polyreactivity
QVQLVESGGGLVQAGGSLRLSCAASGRIFKRYAMGWYRQAPGKERELVAAITRGGSTNYADSVKGRFTISRDNAKNSVYLQMYSLKPEYTAVYYCAATTSRPYRSRYYYWGQGTQVTVSS | high polyreactivity
QVQLVESGGGLVQAGGSLRLSCAASGRIFGFYAMGWYRPAPGKERELVARITLSGGRTYYADSVKGRFTISRDNAKNTVYLQMNSLKPEDTAVYYCAADSIGRLWGYGYWGQGTQVTVSS | high polyreactivity
QVQLVESGGGLVQAGGSLRLSCAPSGSTFDRNDMGWYRQAPGKERELVAAISRVSSTNYADSVKVRFTISRDNAKNTVYLQMNSLKPADTAVYYCAADRAGSIMNYWGQGTQETVSS | low polyreactivity
QVQLVESGGGLVQAGGSLRLSCAASGRIFYYNAMGWYRPAPGKERELVATITGSGGSTYYADSVKGRFTISRDNAKNTVYLQMNSLKPEDTAVYYCNATRWYYDFYKLDYWGQGTQVTVSS | low polyreactivity
QVQLVESGGGLVQAGGSLRLSCAASGRTFYDYAMGWYRQAPGKERELVAGIRWSGGSTYYADSVKGRFTISRDNAKNTVFLQMNSLKPEDTAVYYCAADWFAGVAADVEYDYWGQGTQVTVSS | low polyreactivity
QVQLVESGGGLVQAGGSLRLSCAASGIIFYDYAMGWYRQAPGKERELVAAITSSGGSTYYADSVKGRFTISRDNAKNTVYLQMNSLKPEDTAVYYCAAATRGSGRRYDYWGQGTQVTVSS | high polyreactivity
QVQHVESGVGLVQAGGSLRLSCAASGRTFHSSTMGWYRLAAGKERELVAAISKSGGSTYYADSVKGRFTLSRDNAKNTVYLQMNSLKPEDTAVYYCAADPGSRVHPGVYYWGQGTQLTVSS | high polyreactivity
QVQLVESGGGLVQAGGSLRLSCAASGRIFYFNAMGWYRQAPGKERELVAAISWSGSRTFYADSVTGRFTISRDNAKNTVYLQMNSLKPEDTAVYYCAVRGYMWNAGNTIRRDYWGQGTQVTVSS | high polyreactivity
QVQLVESGGGLVQAGGSLRLSCAASGSTFPRYAMGWYRQAPGKERELVAAISSSGRTYYADSVKGRFTISRDNAKNTVYLQMNSLKPEDTAVYYCNAPVARGEASYYWGQGTQVTVSS | high polyreactivity
QVQLVESGGGLVQAGGSLRLSCAASGLTFFYYAMGWYRQAPGKERELVAGISRSGGSTYYADSVKGRFTISRDNAKNTVYLQMKSLKPEDTAVYYCAKRTLVASYIYREGEYWGQGTQVTVSS | high polyreactivity
QVQLVESGGGLVQAGGSLRISCASSGNTFTSYAMGWYRQAPGKASELVASIDSDDSTNYADSVKGRFTISRDNAKNTDYFQMNSLKPEETAVFYCAASDNDDWYYVYHYDYWVQGTQVTVSS | low polyreactivity
QVQLVESGGGLVQAGGSLRLSCAASGSTFYTYTMGWYRQAPGKERELVAAISTRGGSTYYADSVKGRFTISRDNAKNTVYLQMNCLKPEDTAVYYCAAVYRRGSGYDYWGQGNQVTVSS | high polyreactivity
QVQLVESGGGLVQAGGSLRLSCAASGRIFRGYAMGWYRPAPGKERELVAAIDTDTGITYYADSVKGRFTISRVNAKNTVNLQMNSLKPEDTAVYYCAAETYYAVSTGYYFDYWGQGTQVTVSS | high polyreactivity
QVQLVESGGGLVQAGGSLRLSCAASGRTFFINAMGWYRQAPGKERELVAAMRVGAGSTYYADSVKGRFTISRDNAKNTVYLQMNSLKPEDTAVYYCSKRTATSTRKYDYWGQGTQVTVSS | high polyreactivity
QVQLVESGGGLVQAGGSLRLSCAASGSTLRSYAMGWYRQAPGKERELVAAIDWDGGRTYYADSVKGRFTISRDNAKNTVYLQMNSLKPEDTAVYYCNTSAGWSNGKDEGDFYSGFDYWGQGTQVTVSS | low polyreactivity
QVQLVESGGGLVQAGGRLRLSCTASGRPLYNYTMGWYRQAPGKERELVATINFSGGSTYYADSVKGRFTISRDNAKNTVYLQMNSLKQEDTAVYYCTARGYHYAYKGAYLGDDYWGQGTQVTVSS | low polyreactivity
QVQLVESGGGLVQAGGSLRLSFAASGRTFVRYAMVWYRQAPGKERELVAAISWSGGSTYYADSVKGRFTISRDNAKNTVYLQMNSLKPEDTAVYYCAAYYRGGNFDYWGQGTQVTLSS | high polyreactivity
QVQLVESGGGLVQAGGSLRLSCAASGIIFGYYAMGWYRQAPGKERELVAAISGNGGSTYYADSVKGRFTLSRDNAKITVYLQMNSLKPEDTAVYYCAARRGYRYGPRYDYWGQGTQVTVSS | high polyreactivity
